Source: paper PMC8269962 (Nature, 2021)

Target: H3-I53_dn5B trimer (H3 HA ectodomain fused to the N terminus of I53_dn5B) (influenza A virus (H3N2))
Assay: SEC

Substance “H3-I53_dn5B trimer (H3 HA ectodomain fused to the N terminus of I53_dn5B)” has a stoichiometry N of 3.
